The source of these data is patent US20250206818A1 (AGENUS, published 2025).

Positions count from the first letter of the chain named. Numbers in names are those of the source.

B1: P13B02-30 (IgG1 G1m17 N297A) (antibody, V domains shown)
VH: QVQMVQSGAEVKKPGASVKVSCKASGFNIKDTYIHWVRQAPGQGLEWMGEIDPANDNTKYDPKFQGRVTITADTSTSTVYMELSSLRSEDTAVYYCATYYYKYDVGGFDYWGQGTLVTVSS
VL: EIVLTQSPGTLSLSPGERATLSCSVSSSISSSNLHWYQQKPGQAPRLLIYGTSNLASGIPDRFSGSGSGTDFTLTISRLEPEDFAVYYCQQWSSYPFTFGQGTKVEIK
notes: Full length antibody containing IgG1 G1m17 allotype with a N297A mutation (EU)
B2: P13B02-30 (IgG4) (antibody, V domains shown)
VH: B1 VH
VL: B1 VL
B3: full length chimeric anti-LAG-3 antibody P13B02 (antibody, V domains shown)
VH: QVQMKQSGAELVKPGASVKLSCTASGFNIKDTYIHWVKQRPEQGLEWIGEIDPANDNTKYDPKFQGKATITADTSSNTAYLQLSSLTSEDTAVYYCATYYYRYDVGGFDYWGQGTTLTVS
VL: EILLTQSPALMAASPGEKVTITCSVSSSISSSNLHWFQQKSGTSPKLWIYGTSNLASGVPVRFSGSGSGTSYSLTISSMEAEDAATYYCQQWSSYPFTFGSGTKLEIK
notes: Murine variable regions on human heavy (Ch1, Ch2, Ch3) and light (CL) constant regions; full-length IgG1 chimeric antibody; also called chimeric antibody P13B02 (IgG1)
B4: P14F06 Fab (Fab, V domains shown)
VH: B3 VH with T32N, E50S, D56G, T69S, T98S, Y100F
VL: B3 VL with L3V
notes: Murine Fab, periplasmic extract
B5: P13B02 Fab (Fab, V domains shown)
VH: B3 VH
VL: B3 VL
notes: as for B4
B6: P13B03 Fab (Fab, V domains shown)
VH: B3 VH with Q1E, M4L, K5Q, D56G
VL: B3 VL with I2N, L3V
notes: as for B4
B7: P15B06 Fab (Fab, V domains shown)
VH: EVQLQQSGAELVKPGASVKLSCTASGFNIKDTYMYWVKQRPEQGLDWIGRIDPANGNTHFDPKFQGKATITADTSSNTAYLQLSSLTSEDTAVYYCSTYFYRYDVGGFDYWGQGTTLTVS
VL: B3 VL with E1Q, F37Y, F97L, S101A, I107L
notes: as for B4
B8: P16H05 Fab (Fab, V domains shown)
VH: B3 VH with M4L, K5Q, S7P, T32N, E50S, D56G, T69S, T98S, Y100F
VL: B3 VL with L3V, F37Y, F97H, S101G
notes: as for B4
B9: P13A06 Fab (Fab, V domains shown)
VH: B7 VH with E1Q, Q5K, D46E, H59K, F60Y, A79V, Y94F, S97V, T98I, F100S
VL: B3 VL with I2N, L3V, F37Y, F97H, S101G
notes: as for B4
B10: P14G03 Fab (Fab, V domains shown)
VH: B3 VH with E42G, D56G
VL: B3 VL with E1D, L3V, H35Y
notes: as for B4

One test deals with T1, human LAG-3 expressed on cells (human, UniProt P18627 23-525).
T1 construct: whole, on cells; also called CD223
T1 sequence (looked up): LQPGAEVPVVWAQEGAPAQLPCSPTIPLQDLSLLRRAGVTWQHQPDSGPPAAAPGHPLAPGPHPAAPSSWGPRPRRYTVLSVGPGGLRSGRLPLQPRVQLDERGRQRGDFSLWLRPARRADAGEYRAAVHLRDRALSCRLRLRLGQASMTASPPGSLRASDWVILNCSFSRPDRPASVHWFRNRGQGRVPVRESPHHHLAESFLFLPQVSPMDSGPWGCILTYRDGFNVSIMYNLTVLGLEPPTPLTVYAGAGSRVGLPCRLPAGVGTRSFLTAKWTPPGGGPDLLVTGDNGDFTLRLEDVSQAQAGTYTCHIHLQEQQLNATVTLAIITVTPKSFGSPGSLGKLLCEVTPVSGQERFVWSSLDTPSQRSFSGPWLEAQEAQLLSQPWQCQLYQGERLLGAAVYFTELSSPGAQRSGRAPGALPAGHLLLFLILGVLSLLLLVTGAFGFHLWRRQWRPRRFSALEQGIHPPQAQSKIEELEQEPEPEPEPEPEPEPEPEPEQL
Put plainly: flow cytometry, 10 ug/ml antibody on SEA-activated primary human CD4+ T cells (FIG. 6A). On the technique in general: Flow cytometry measures light scatter and fluorescence of single cells or particles in a stream.
In the case of B1, the binding result is listed as “binds”.
Consider B2, for which the binding result is “binds”.
Consider B3, for which the binding result was “binds”.

In another test the target is T1, human LAG-3 expressed on cells. Put plainly: flow cytometry, Fab periplasmic extract on Jurkat cells expressing human LAG-3 (FIGS. 1A-1C). As to the method:
The anti-LAG-3 Fabs from periplasmic extracts were tested for binding to LAG-3-expressing cells using flow cytometry. Briefly, wild type and human LAG-3-expressing Jurkat cells were plated at 2×10⁵ cells/well in sample buffer (PBS (Gibco, Cat #10010-015)+0.5% FBS (Gibco, Cat #10270-106)) in 96-well U-bottom plates (Sarstedt). 22 μl of anti-LAG-3 Fab periplasmic extract and 83 μl of diluted anti-c-myc antibody (Gentaur, Clone #9E10, Cat #04-cmyc-9E10) were incubated for 30 minutes at room temperature. 100 μl of the periplasmic extract/anti-c-myc mixture was added to cells and then incubated for one hour on ice. Cells were washed three times and then incubated with a goat anti-mouse APC (BD Biosciences, Cat #550826) for 30 minutes on ice. Cells were washed three times and then analyzed with a FACS machine (BD Accuri6).
Consider B4, for which the binding result is given as “binds”.
As to B5, the binding result is on record as “binds”.
Same read-out and setting: to B6 belongs “binds”; to B7, “binds”; to B8, “binds”.
On the same count and under the same terms, the value for B9 was “binds”; that for B10 was “binds”.

A further test deals with T2, human LAG-3 (human, UniProt P18627 23-450, limits assumed).
T2 construct: Selections used human LAG-3-Fc, human LAG-3-6His, a 30 aa LAG-3 peptide and/or cells with cynomolgus LAG-3; also called CD223
T2 sequence (looked up): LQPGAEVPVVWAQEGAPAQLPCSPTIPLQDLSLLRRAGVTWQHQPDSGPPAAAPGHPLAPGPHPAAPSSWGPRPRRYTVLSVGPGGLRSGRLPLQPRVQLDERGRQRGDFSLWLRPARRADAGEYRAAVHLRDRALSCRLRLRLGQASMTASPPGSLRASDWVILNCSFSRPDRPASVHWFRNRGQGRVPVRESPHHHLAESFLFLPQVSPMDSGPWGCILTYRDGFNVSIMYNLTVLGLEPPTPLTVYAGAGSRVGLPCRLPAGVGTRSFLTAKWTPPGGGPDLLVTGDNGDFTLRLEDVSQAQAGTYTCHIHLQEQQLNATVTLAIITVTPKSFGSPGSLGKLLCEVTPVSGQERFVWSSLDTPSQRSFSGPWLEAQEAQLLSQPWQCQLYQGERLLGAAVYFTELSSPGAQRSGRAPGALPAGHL
In words: Fab phage display selection; periplasmic extracts screened by ELISA or flow cytometry. From the text:
Anti-LAG-3 antibodies were identified by generation and selection of an immunized Fab phage display library. […] Per mouse, a Fab library was then generated by random-primed cDNA using total RNA as a template to amplify variable regions from mouse antibody genes. Heavy and kappa chain amplicons were combined and cloned into phagemid vectors. […] The 30 amino acid human LAG-3 peptide is a biotinylated peptide comprising the amino acid sequence of […] (SEQ ID NO: 199). Periplasmic extracts of selected Fab clones were then screened by ELISA or flow cytometry. Antibody sequencing and off-rate analysis were then performed on anti-LAG-3 Fabs.
For orientation: In an ELISA, binding on a coated surface is turned into a signal by an enzyme label.
For the molecule B4, the binding result is reported as “binds”.
Regarding B5, the binding result was “binds”.
The same measure, in the same setting: the value for B6 was “binds”; that for B7 was “binds”; that for B8 was “binds”.
In the case of B9, the binding result is reported as “binds”.
On to B10, for which the binding result is recorded as “binds”.
